# According to article PMC9917443:
# Target: purified recombinant SD1/2 protein
# Test: ITC; peptide (300 μM in the syringe) injected into SD1/2 protein (30 μM) in the cell; 25°C; 20 mM NaPi (pH 6.8), 50 mM NaCl, 0.5 mM EDTA; one-site binding model
Kd,stoichiometry N,Binder
543 nM,1.05,Ac-DDSDVWWGGADTDYADG-NH2 [APP17]
> 300000 nM,–,Ac-DWGADTVSGDGYDAWDD-NH2 [sc-APP17]
